In patent US7897568B2, “Compositions for treatment of cancer” (priority 2006, dated 2011):
Where no end group is shown, it is not given here.

Key:
SNCG = SNCG (Homo sapiens, UniProt O76070); test: Co-immunoprecipitation of EGFP-ANK deletion peptides with anti-SNCG antibody; type: binding; set-up: expressed in transfected cells; host or cells: MCF7-SNCG (MCF7 stably expressing SNCG); conditions: MCF7-neo and MCF7-SNCG clones transfected with pEGFP-ANK deletion peptide plasmids
MCF7-Neo cells = test: Microinjection of ANK peptide then nocodazole, mitotic arrest/apoptosis count; type: cell-based; conditions: cells without ANK injection, 0.5 μM nocodazole for 24 hours
Method: ANK peptide interference with SNCG-BubR1 association in vivo was examined in a stable breast cancer cell line MCF7 expressing SNCG (MCF7-SNCG) and a control SNCG negative cell line (MCF7-Neo). […] Significant numbers of cells survived after treatment with the ANK peptide by microinjection in both cell lines. After microinjection, cells were treated with 0.5 μM nocodazole for 24 hours and the fraction of mitotically arrested cells was counted.
MCF7-SNCG and MCF-Neo were grown to 80% confluence, split with trypsin and seeded on a 22 mm glass coverslip treated with human fibronectin ([…]) into 60 mm diameter dishes containing cell maintenance medium for 24 hours and utilized for the experiments. In initial experiments ANK peptide (5, 10 or 100 μM) was microinjected. In all further experiment to date, ANK peptide (10 μM), together with goat IgG (1 mg/ml) and fluoroscein isothiocyanate (FITC, 5 mg/ml; Molecular Probes) into the MCF7-SNCG or MCF7-Neo cells under a 40× magnification of phase contrast microscope (Carl Zeiss Inc.) using a pressure injection system (Femtojet, Eppendorf). To exclude the possibility that microinjection might affect cell cycle and proliferation, MCF7-Neo and MCF7-SNCG were microinjected with goat IgG as a control. Injections were done at a constant flow setup by varying the injection pressure Pc between 40-70 units. The microscope stage was kept at 37° C. using thermal control device (Tempcontrol-37-2 Digital). Approximately 25-30 cells were microinjected in each experiment (n=3). Cells were quickly incubated to revive. […]
For the immunofluorescence experiments, cells were fixed in 0.5% buffered paraformaldehyde for 8 minutes at room temperature. […] Cells were scored by identifying cells containing Alexa Fluor 488 excited at 488 nm, and the emission measured at 500-535 nm; DAPI was excited at 345 nm and the emission was measured at 445 nm. […] Mitotic index was determined as described by Gupta et al. (Oncogene 2003 22:7593-7599) and Inaba et al. Breast Cancer Res. Treat. […]

[1] = biological target: SNCG expressed in cells (MCF7-SNCG, T47D, or COS7 transfected with pCI-SNCG) (UniProt O76070 1-127, limits assumed); test: cell-based or functional assay
[2] = biological target: T1, glutathione S-transferase (GST)-SNCG fusion protein (human, UniProt O76070 1-127); test: SPR, ANK peptide immobilised, GST-SNCG analyte, global fit, two-phase reaction (conformation change) model, kd1
T1 construct: Expressed in E. coli BL21 (DE3), eluted with reduced glutathione; Used as analyte in SPR, in the cell in ITC and as bait in the GST pull-down; not shown: glutathione S-transferase tag encoded by the pGEX-4T-3 vector (Amersham Biosciences); vector linker with thrombin site between GST and the BamH1 site

[3] = biological target: T1, glutathione S-transferase (GST)-SNCG …; test: ITC, ANK peptide titrated into GST-SNCG, sequential binding site model, first binding site
[4] = biological target: T1, glutathione S-transferase (GST)-SNCG …; test: SPR, ANK peptide immobilised, GST-SNCG analyte, global fit, two-phase reaction (conformation change) model, kd2
[5] = biological target: T1, glutathione S-transferase (GST)-SNCG …; test: SPR, ANK peptide immobilised, GST-SNCG analyte, apparent overall Kd
[6] = biological target: T2, glutathione S-transferase (GST) (UniProt P08515 1-218 = GST); test: SPR (BIACORE 3000), ANK peptide immobilised, GST as analyte
T2 construct: Control for GST-SNCG in SPR

[7] = biological target: T3, synuclein-gamma (SNCG), recombinant, released from GST-SNCG by thrombin (human, UniProt O76070 1-127); test: intrinsic tyrosine fluorescence of 30 µM SNCG titrated with ANK peptide
T3 construct: 15N-labelled for NMR; also called native SNCG; Breast Cancer Specific Gene 1
T3 sequence (O76070 whole entry): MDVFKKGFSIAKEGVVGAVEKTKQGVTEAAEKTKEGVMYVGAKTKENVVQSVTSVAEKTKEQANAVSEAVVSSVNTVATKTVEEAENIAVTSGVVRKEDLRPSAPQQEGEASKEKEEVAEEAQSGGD

SNCG expressed in cells (MCF7-SNCG, T47D, or COS7 transfected with pCI-SNCG), sequence (O76070 whole entry, stated change not applied, the tested form may be a part): as the sequence (O76070 whole entry) above
T1 sequence (O76070 whole entry, the tested form may be a part): as the sequence (O76070 whole entry) above
SNCG, sequence (O76070 whole entry): as above
T2 sequence (P08515 whole entry): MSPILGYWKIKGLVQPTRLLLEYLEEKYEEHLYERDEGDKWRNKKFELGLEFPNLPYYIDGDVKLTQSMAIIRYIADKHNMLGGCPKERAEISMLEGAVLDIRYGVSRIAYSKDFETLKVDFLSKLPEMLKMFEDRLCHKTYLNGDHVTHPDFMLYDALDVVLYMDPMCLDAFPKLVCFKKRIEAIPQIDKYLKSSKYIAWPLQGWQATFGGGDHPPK

EGFP-ANK deletion peptide P12: EGFP fusion of deletion peptide P12 GNSALHVASQHG, expressed from pEGFP-C2 plasmid in cells (not fully specified (N-terminus); also: EGFP fusion protein (recombinant))
interaction with SNCG by co-IP (SNCG): identified to interact

COC(=O)Nc1nc2ccc(C(=O)c3cccs3)cc2[nH]1 [nocodazole, reference compound]
degree of mitotic arrest in MCF7-Neo cells as compared to MCF7-SNCG cells (MCF7-Neo cells): significantly higher degree of mitotic arrest

EGFP-ANK deletion peptide P8: EGFP fusion of deletion peptide P8 GANVTMQN, expressed from pEGFP-C2 plasmid in cells (not fully specified (N-terminus); also: EGFP fusion protein (recombinant))
interaction with SNCG by co-IP (SNCG): identified to interact

KGNSALHVASQHGHLGCIQTLVRYGANVTMQNHG (other, not shown: large carriers, not fully specified (N-terminus); also: EGFP fusion protein (recombinant)) [enhanced green fluorescent protein (EGFP)-ANK fusion protein]
apoptotic cell populations (DAPI staining) after paclitaxel [1]: 5 fold
apoptotic/dead cell population, flow cytometric cell cycle analysis after 0.5 µM paclitaxel, MCF7-SNCG cells [1]: ~4 fold
positive phosphorylated histones (anti-phospho-H3 staining, flow cytometry), MCF7-SNCG cells [1]: 3.5 fold

B1: ANK peptide KGNSALHVASQHGHLGCIQTLVRYGANVTMQNHG (SEQ ID NO:1) (peptide)
peptide: Ac-KGNSALHVASQHGHLGCIQTLVRYGANVTMQNHG-NH2
notes: For SPR it was immobilised on a CM5 chip by ligand thiol coupling; also called ankyrin repeat-like peptide
koff [2]: 0.014 s⁻¹
Kd [3]: 70 µM
ΔH [3]: 2.17 kcal/mol
koff [4]: 0.000802 s⁻¹
Kd [5]: 73.4 µM
binding result [6]: no binding
Kd [7]: ~100 µM
